The record followed here is publication PMC11809415 (2025).

B1: F-tractinopt–mCherry fusion [rat] / F-actin (rabbit skeletal muscle α-actin filaments) [rabbit] (parent complex)
chain 1: APRRSVGELRLLFEARAASAA
chain 2: not shown

In one test the parent is B1. Put plainly: high-speed cosedimentation assay (SDS-PAGE densitometry); 2 µM F-tractin-mCherry; high-speed sedimentation, 120,000 g; actin 0-40 µM.
As usually defined, the Kd is the constant that tells how readily two partners part at equilibrium. Consider chain 1 R3A, for which the Kd is 23 µM.

In the next test the parent is B1. Kind of test: high-speed cosedimentation assay (SDS-PAGE densitometry); 2 µM F-tractin-mCherry; high-speed sedimentation, 120,000 g; point at the highest actin level (40 µM total, about 39 µM free F-actin); read off a plot.
For chain 1 R3A, the response was ~0.44 fraction of F-tractin bound.

A further test covers variants of B1. Kind of test: high-speed cosedimentation assay (SDS-PAGE densitometry); 2 µM F-tractin-mCherry; high-speed sedimentation, 120,000 g; point at the highest actin level (40 µM total, about 40 µM free F-actin); read off a plot.
chain 1 F13A: the response is ~0.06 fraction of F-tractin bound.
